Data as given in US20170247476A1 (Amgen, published 2017).
Positions count from the first letter of the chain named.

B1: aCD3-aHER2-Xbody (bispecific antibody)
chain 1: not shown
chain 2: EVQLVESGGGLVQPGGSLKLSCAASGFTFNSYAMNWVRQAPGKGLEWVARIRSKYNNYATYYADSVKGRFTISRDDSKNTAYLQMNNLKTEDTAVYYCVRHGNFGNSYVSWWAYWGQGTLVTVSSGGGGSGGGGSELVMTQTPSSLSASLGDRVTISCRASQDISNYLNWYQQKPDGTVKLLIYYTSRLHSGVPSRFSGSGSGTDYSLTISNLEQEDIATYFCQQGNTLPLTFGAGTKLEIKASTKGPSVFPLAPCSRSTSESTAALGCLVKDYFPEPVTVSWNSGALTSGVHTFPAVLQSSGLYSLSSVVTVPSSNFGTQTYTCNVDHKPSNTKVDKTVGGGGSAAAEPKSSDKTHTCPPCPAPEAAGGPSVFLFPPKPKDTLMISRTPEVTCVVVDVSHEDPEVKFNWYVDGVEVHNAKTKPREEQYNSTYRVVSVLTVLHQDWLNGKEYKCKVSNKALPAPIEKTISKAKGQPREPQVYTLPPSREEMTKNQVSLTCLVKGFYPSDIAVEWESNGQPENNYDTTPPVLDSDGSFFLYSDLTVDKSRWQQGNVFSCSVMHEALHNHYTQKSLSLSPGK
B2: CD3ε(1-27)-MMP-2csV3-aCD3-aHER2-Xbody (bispecific antibody)
chain 1: not shown
chain 2: QDGNEEMGGITQTPYKVSISGTTVILTGGGGSGGGGSGGGGSPLGLAGEVQLVESGGGLVQPGGSLKLSCAASGFTFNSYAMNWVRQAPGKGLEWVARIRSKYNNYATYYADSVKGRFTISRDDSKNTAYLQMNNLKTEDTAVYYCVRHGNFGNSYVSWWAYWGQGTLVTVSSGGGGSGGGGSELVMTQTPSSLSASLGDRVTISCRASQDISNYLNWYQQKPDGTVKLLIYYTSRLHSGVPSRFSGSGSGTDYSLTISNLEQEDIATYFCQQGNTLPLTFGAGTKLEIKASTKGPSVFPLAPCSRSTSESTAALGCLVKDYFPEPVTVSWNSGALTSGVHTFPAVLQSSGLYSLSSVVTVPSSNFGTQTYTCNVDHKPSNTKVDKTVGGGGSAAAEPKSSDKTHTCPPCPAPEAAGGPSVFLFPPKPKDTLMISRTPEVTCVVVDVSHEDPEVKFNWYVDGVEVHNAKTKPREEQYNSTYRVVSVLTVLHQDWLNGKEYKCKVSNKALPAPIEKTISKAKGQPREPQVYTLPPSREEMTKNQVSLTCLVKGFYPSDIAVEWESNGQPENNYDTTPPVLDSDGSFFLYSDLTVDKSRWQQGNVFSCSVMHEALHNHYTQKSLSLSPGK
B3: CD3ε(1-27)-MMP-2csV2-aCD3-aHER2-Xbody, digested with MMP-2 (bispecific antibody)
chain 1: not shown
chain 2: MLSQSEVQLVESGGGLVQPGGSLKLSCAASGFTFNSYAMNWVRQAPGKGLEWVARIRSKYNNYATYYADSVKGRFTISRDDSKNTAYLQMNNLKTEDTAVYYCVRHGNFGNSYVSWWAYWGQGTLVTVSSGGGGSGGGGSELVMTQTPSSLSASLGDRVTISCRASQDISNYLNWYQQKPDGTVKLLIYYTSRLHSGVPSRFSGSGSGTDYSLTISNLEQEDIATYFCQQGNTLPLTFGAGTKLEIKASTKGPSVFPLAPCSRSTSESTAALGCLVKDYFPEPVTVSWNSGALTSGVHTFPAVLQSSGLYSLSSVVTVPSSNFGTQTYTCNVDHKPSNTKVDKTVGGGGSAAAEPKSSDKTHTCPPCPAPEAAGGPSVFLFPPKPKDTLMISRTPEVTCVVVDVSHEDPEVKFNWYVDGVEVHNAKTKPREEQYNSTYRVVSVLTVLHQDWLNGKEYKCKVSNKALPAPIEKTISKAKGQPREPQVYTLPPSREEMTKNQVSLTCLVKGFYPSDIAVEWESNGQPENNYDTTPPVLDSDGSFFLYSDLTVDKSRWQQGNVFSCSVMHEALHNHYTQKSLSLSPGK
B4: CD3ε(1-27)-MMP-2csV2-aCD3-aHER2-Xbody (bispecific antibody)
chain 1: not shown
chain 2: QDGNEEMGGITQTPYKVSISGTTVILTGGGGSGGGGSGGGGSGGPLGMLSQSEVQLVESGGGLVQPGGSLKLSCAASGFTFNSYAMNWVRQAPGKGLEWVARIRSKYNNYATYYADSVKGRFTISRDDSKNTAYLQMNNLKTEDTAVYYCVRHGNFGNSYVSWWAYWGQGTLVTVSSGGGGSGGGGSELVMTQTPSSLSASLGDRVTISCRASQDISNYLNWYQQKPDGTVKLLIYYTSRLHSGVPSRFSGSGSGTDYSLTISNLEQEDIATYFCQQGNTLPLTFGAGTKLEIKASTKGPSVFPLAPCSRSTSESTAALGCLVKDYFPEPVTVSWNSGALTSGVHTFPAVLQSSGLYSLSSVVTVPSSNFGTQTYTCNVDHKPSNTKVDKTVGGGGSAAAEPKSSDKTHTCPPCPAPEAAGGPSVFLFPPKPKDTLMISRTPEVTCVVVDVSHEDPEVKFNWYVDGVEVHNAKTKPREEQYNSTYRVVSVLTVLHQDWLNGKEYKCKVSNKALPAPIEKTISKAKGQPREPQVYTLPPSREEMTKNQVSLTCLVKGFYPSDIAVEWESNGQPENNYDTTPPVLDSDGSFFLYSDLTVDKSRWQQGNVFSCSVMHEALHNHYTQKSLSLSPGK
B5: CD3ε(1-27)-FURINcsV2-aCD3-aHER2-Xbody (bispecific antibody)
chain 1: not shown
chain 2: B4 chain 2 with G44Q, P45S, L46S, G47R, M48H, L49R, S50R, Q51A, S52L
B6: aCD3-aHER2-mxb (bispecific antibody)
chain 1: EVQLLEQSGAELVRPGALVKLSCKASGFKIKDYFVNWVKQRPEQGLEWIGWIDPENDNSLYGPNFQDKASITADTSSNTGYLQLSGLTSEDTAVYYCALYYGSRGDAMDYWGQGTTVTVSSGGGGSGGGGSGGGGSELVMTQTPSSLSASLGDRVTISCRASQDISNYLNWYQQKPDGTVKLLIYYTSRLHSGVPSRFSGSGSGTDYSLTISNLEQEDIATYFCQQGNTLPLTFGAGTKLEIKAAAEPKSSDKTHTCPPCPAPEAAGGPSVFLFPPKPKDTLMISRTPEVTCVVVDVSHEDPEVKFNWYVDGVEVHNAKTKPREEQYNSTYRVVSVLTVLHQDWLNGKEYKCKVSNKALPAPIEKTISKAKGQPREPQVYTLPPSRKEMTKNQVSLTCLVKGFYPSDIAVEWESNGQPENNYKTTPPVLKSDGSFFLYSKLTVDKSRWQQGNVFSCSVMHEALHNHYTQKSLSLSPGKAAAHHHHHH
chain 2: not shown
B7: CD3ε(1-27)-MMP-2csV3-aCD3-aHER2-Xbody, digested with MMP-2 (bispecific antibody)
chain 1: not shown
chain 2: LAGEVQLVESGGGLVQPGGSLKLSCAASGFTFNSYAMNWVRQAPGKGLEWVARIRSKYNNYATYYADSVKGRFTISRDDSKNTAYLQMNNLKTEDTAVYYCVRHGNFGNSYVSWWAYWGQGTLVTVSSGGGGSGGGGSELVMTQTPSSLSASLGDRVTISCRASQDISNYLNWYQQKPDGTVKLLIYYTSRLHSGVPSRFSGSGSGTDYSLTISNLEQEDIATYFCQQGNTLPLTFGAGTKLEIKASTKGPSVFPLAPCSRSTSESTAALGCLVKDYFPEPVTVSWNSGALTSGVHTFPAVLQSSGLYSLSSVVTVPSSNFGTQTYTCNVDHKPSNTKVDKTVGGGGSAAAEPKSSDKTHTCPPCPAPEAAGGPSVFLFPPKPKDTLMISRTPEVTCVVVDVSHEDPEVKFNWYVDGVEVHNAKTKPREEQYNSTYRVVSVLTVLHQDWLNGKEYKCKVSNKALPAPIEKTISKAKGQPREPQVYTLPPSREEMTKNQVSLTCLVKGFYPSDIAVEWESNGQPENNYDTTPPVLDSDGSFFLYSDLTVDKSRWQQGNVFSCSVMHEALHNHYTQKSLSLSPGK
B8: CD3ε(1-27)-aCD3-aHER2-Xbody (bispecific antibody)
chain 1: not shown
chain 2: QDGNEEMGGITQTPYKVSISGTTVILTGGGGSGGGGSGGGGSEVQLVESGGGLVQPGGSLKLSCAASGFTFNSYAMNWVRQAPGKGLEWVARIRSKYNNYATYYADSVKGRFTISRDDSKNTAYLQMNNLKTEDTAVYYCVRHGNFGNSYVSWWAYWGQGTLVTVSSGGGGSGGGGSELVMTQTPSSLSASLGDRVTISCRASQDISNYLNWYQQKPDGTVKLLIYYTSRLHSGVPSRFSGSGSGTDYSLTISNLEQEDIATYFCQQGNTLPLTFGAGTKLEIKASTKGPSVFPLAPCSRSTSESTAALGCLVKDYFPEPVTVSWNSGALTSGVHTFPAVLQSSGLYSLSSVVTVPSSNFGTQTYTCNVDHKPSNTKVDKTVGGGGSAAAEPKSSDKTHTCPPCPAPEAAGGPSVFLFPPKPKDTLMISRTPEVTCVVVDVSHEDPEVKFNWYVDGVEVHNAKTKPREEQYNSTYRVVSVLTVLHQDWLNGKEYKCKVSNKALPAPIEKTISKAKGQPREPQVYTLPPSREEMTKNQVSLTCLVKGFYPSDIAVEWESNGQPENNYDTTPPVLDSDGSFFLYSDLTVDKSRWQQGNVFSCSVMHEALHNHYTQKSLSLSPGK
B9: CD3ε(1-27)-FURINcsV1-aCD3-aHER2-Xbody (bispecific antibody)
chain 1: not shown
chain 2: QDGNEEMGGITQTPYKVSISGTTVILTGGGGSGGGGSGGGGSRRRRREVQLVESGGGLVQPGGSLKLSCAASGFTFNSYAMNWVRQAPGKGLEWVARIRSKYNNYATYYADSVKGRFTISRDDSKNTAYLQMNNLKTEDTAVYYCVRHGNFGNSYVSWWAYWGQGTLVTVSSGGGGSGGGGSELVMTQTPSSLSASLGDRVTISCRASQDISNYLNWYQQKPDGTVKLLIYYTSRLHSGVPSRFSGSGSGTDYSLTISNLEQEDIATYFCQQGNTLPLTFGAGTKLEIKASTKGPSVFPLAPCSRSTSESTAALGCLVKDYFPEPVTVSWNSGALTSGVHTFPAVLQSSGLYSLSSVVTVPSSNFGTQTYTCNVDHKPSNTKVDKTVGGGGSAAAEPKSSDKTHTCPPCPAPEAAGGPSVFLFPPKPKDTLMISRTPEVTCVVVDVSHEDPEVKFNWYVDGVEVHNAKTKPREEQYNSTYRVVSVLTVLHQDWLNGKEYKCKVSNKALPAPIEKTISKAKGQPREPQVYTLPPSREEMTKNQVSLTCLVKGFYPSDIAVEWESNGQPENNYDTTPPVLDSDGSFFLYSDLTVDKSRWQQGNVFSCSVMHEALHNHYTQKSLSLSPGK

Molecular target: HER2 (human, UniProt P04626 23-1255)
Test: cell-based or functional assay

| EC50 Cytolysis (ng/mL), -MMP2; TDCC of SKOV-3 cells with pan T cells [ng/mL] | EC50 Cytolysis (ng/mL), +MMP2; TDCC of SKOV-3 cells with pan T cells [ng/mL] | Binder |
| --- | --- | --- |
| 0.128 | – | B1 |
| 5.49 | – | B2 |
| – | 0.22 | B3 |
| 2.62 | – | B4 |
| 0.112 | 0.256 | B5 |
| 0.184 | – | B6 |
| – | 0.205 | B7 |
| 6.12 | 6.73 | B8 |
| 0.276 | 0.332 | B9 |
